Article PMC7278352

Target: pre-formed paclitaxel-stabilized microtubules (tubulin isolated from porcine brain) (porcine) (UniProt P02550)
Assay: co-sedimentation; pre-formed paclitaxel-stabilized MTs (100 ug/ml tubulin) incubated 30 min at room temperature with 250 ug/ml protein in General tubulin buffer (80 mM PIPES, 0.5 mM EGTA, 2 mM MgCl2, pH 6.9) with 1 mM GTP and 5% glycerol; spun through a 60% glycerol cushion at 100,000 x g for 40 min; band intensity in pellet and supernatant on SDS-PAGE, 5 repeats

Sequence of UniProt P02550 (P02550 whole entry, looked up): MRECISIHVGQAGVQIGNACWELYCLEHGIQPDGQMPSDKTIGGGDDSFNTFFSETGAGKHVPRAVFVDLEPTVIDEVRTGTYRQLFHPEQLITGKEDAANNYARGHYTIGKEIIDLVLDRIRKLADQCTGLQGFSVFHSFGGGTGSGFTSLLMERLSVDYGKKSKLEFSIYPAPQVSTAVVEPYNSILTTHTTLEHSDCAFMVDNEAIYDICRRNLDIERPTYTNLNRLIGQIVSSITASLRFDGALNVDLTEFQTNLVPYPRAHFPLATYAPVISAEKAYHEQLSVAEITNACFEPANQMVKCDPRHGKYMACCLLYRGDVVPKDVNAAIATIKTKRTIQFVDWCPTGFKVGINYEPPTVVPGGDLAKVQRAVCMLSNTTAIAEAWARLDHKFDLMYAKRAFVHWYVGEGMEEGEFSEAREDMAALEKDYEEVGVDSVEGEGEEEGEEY

percent of protein pelleted with MTs: 78%
Substance: microtubule-associated protein fraction (MAPF)
